Data reported in US20090239215A1.

Molecular target: MBP-MT2 fusion protein (maltose binding protein fused to two copies of metallothionein), without gold (mouse) (UniProt P02802)
Test: STEM mass measurement (PCMass25); expected 260 kDa for the antibody with two MBP-MT2

UniProt P02802, sequence (P02802 other isoform, or with tags, fused parts or gaps): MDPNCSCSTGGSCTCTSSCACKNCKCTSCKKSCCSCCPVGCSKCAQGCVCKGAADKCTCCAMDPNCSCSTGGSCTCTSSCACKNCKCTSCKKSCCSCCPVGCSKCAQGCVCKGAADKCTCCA

mean STEM mass of the antibody complex particles: 205 kDa
Substance: commercially available monoclonal IgG2a MBP antibody (New England Biolabs)
